Literature values in PMC10423694.

Columns and labels:
K48-diUb (Homo sapiens) = K48-diUb (Homo sapiens) (UniProt P0CG47); experiment: SPR
K63-diUb (Homo sapiens) = K63-diUb (Homo sapiens) (UniProt P0CG47); experiment: SPR
M1-diUb (Homo sapiens) = M1-diUb (Homo sapiens) (UniProt P0CG47); experiment: SPR
[1] = target: ubiquitin monomer (Homo sapiens) (UniProt P0CG47); experiment: SPR
ubiquitin (Homo sapiens) = ubiquitin (Homo sapiens) (UniProt P0CG47)

NEMO, sequence (Q9Y6K9 whole entry): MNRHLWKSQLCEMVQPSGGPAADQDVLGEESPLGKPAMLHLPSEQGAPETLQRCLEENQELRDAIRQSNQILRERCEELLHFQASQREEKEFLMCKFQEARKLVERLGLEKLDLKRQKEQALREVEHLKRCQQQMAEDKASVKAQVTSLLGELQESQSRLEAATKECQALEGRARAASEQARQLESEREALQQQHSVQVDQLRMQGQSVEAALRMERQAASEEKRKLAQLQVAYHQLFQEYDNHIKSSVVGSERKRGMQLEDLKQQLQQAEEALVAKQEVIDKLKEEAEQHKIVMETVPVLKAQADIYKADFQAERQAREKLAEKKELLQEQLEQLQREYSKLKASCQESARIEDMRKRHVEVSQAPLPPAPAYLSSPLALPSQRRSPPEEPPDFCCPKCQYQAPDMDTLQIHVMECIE
UBQLN2 UBA, sequence (Q9UHD9 578-624): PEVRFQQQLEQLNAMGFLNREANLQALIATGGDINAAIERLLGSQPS

NEMO (from UniProt Q9Y6K9)
Kd (K48-diUb (Homo sapiens)): 169 µM | Kd (K63-diUb (Homo sapiens)): 140 µM | Kd (M1-diUb (Homo sapiens)): 4.5 µM | Kd [1]: 152 µM

UBQLN2 UBA (from UniProt Q9UHD9)
Kd (ubiquitin (Homo sapiens)): 8 µM
